Reference: the supplement of paper PMC7877785
± gives the uncertainty stated by the source.

Test: self-splicing fitness, log relative to wild type (ln ratio); higher = more splicing; Tetrahymena group I intron in knt gene, E. coli kanamycin selection, DiMSum; sequences stand for … in CUCUCU…GGAGGGAAAAGUUAUCAGGCAUGCACCUGGUAGCUAGUCUUUAAACCAAUAGAUUGCAUCGGUUUAAAAGGCAAGACCGUCAAAUUGCGGGAAAGGGGUCAACAGCCGUUCAGUACCAAGUCUCAGGGGAAACUUUGAGAUGGCCUUGCAAAGGGUAUGGUAAUAAGCUGACGGACAUGGUCCUAACCACGCAGCCAAGUCCUAAGUCAACAGAUCUUCUGUUGAUAUGGAUGCAGUUCACAGACUAAAUGUCGGUCGGGGAAGAUGUAUUCUUCUCAUAAGAUAUAGUCGGACCUCUCCUUAAUGGGAGCUAGCGGAUGAAGUGAUGCAACACUGGAGCCGCUGGGAACUAAUUUGUAUGCGAAAGUAUAUUGAUUAGUUUUGGAGUACUCGUGGUCG
Procedure, shortened: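 DiMSum derived fitness as the error-weighted combination of fold changes across replicates, kanamycin versus no kanamycin, normalised to wild type. E. coli BL21(DE3) held the library, which randomised all eight P1ex-region intron nucleotides within the knt kanamycin-resistance gene on pET-22b(+). Six replicate transformations grew overnight at 37°C or 30°C on LB agar with or without 25 μg/mL kanamycin, also containing 100 μg/mL carbenicillin, 50 μM IPTG and 0.2% rhamnose, and pooled colonies were amplicon-sequenced on an Illumina HiSeq 2500.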

Row | Sequence | self-splicing fitness (ln) (30 °C) | self-splicing fitness (ln) (37 °C)
1 | AUAGAGCAAUAUUACGACAA | -1.04 ± 0.07 | -0.291 ± 0.092
2 | AUAGAGCAAUAUUACGAGAA | – | -1.82 ± 0.32
3 | AUAGAGCAAUAUUACGAUGU | -0.266 ± 0.067 | 0.423 ± 0.095
4 | AUAGAGCAAUAUUACGCGUA | -0.662 ± 0.1 | -0.524 ± 0.13
5 | AUAGAGCAAUAUUACGCUAC | -2.79 ± 0.2 | -2.36 ± 0.2
6 | AUAGAGCAAUAUUACGCUCG | -0.665 ± 0.41 | 0.704 ± 0.38
7 | AUAGAGCAAUAUUACGGAAA | -2.73 ± 0.22 | -2.19 ± 0.38
8 | AUAGAGCAAUAUUACGGCGA | -0.73 ± 0.059 | 0.0474 ± 0.076
9 | AUAGAGCAAUAUUACGGGAU | -1.54 ± 0.11 | -1.87 ± 0.2
10 | AUAGAGCAAUAUUACGGUAC | -3.74 ± 0.32 | -1.55 ± 0.23
11 | AUAGAGCAAUAUUACGUACA | -1.62 ± 0.098 | -0.944 ± 0.12
12 | AUAGAGCAAUAUUACGUGUC | -2.81 ± 0.33 | -2.17 ± 0.36
13 | AUAGAGCAAUAUUACGUGUU | -3.73 ± 0.19 | -2.38 ± 0.18
14 | AUAGAGCAAUAUUACGUUAC | -1.38 ± 0.19 | -1.37 ± 0.3
15 | AUAGAGCAAUAUUACGUUUU | -1.43 ± 0.084 | -1.3 ± 0.14
16 | AUAUAGCAAUAUUACGACGC | -1.91 ± 0.27 | -0.93 ± 0.29
17 | AUAUAGCAAUAUUACGAUAU | -1.87 ± 0.13 | -1.33 ± 0.13
18 | AUAUAGCAAUAUUACGAUUG | -2.96 ± 0.18 | -3.2 ± 0.4
19 | AUAUAGCAAUAUUACGAUUU | -0.24 ± 0.095 | 0.694 ± 0.12
20 | AUAUAGCAAUAUUACGCACG | -1.54 ± 0.23 | -0.439 ± 0.21
21 | AUAUAGCAAUAUUACGCACU | -0.015 ± 0.13 | -0.204 ± 0.16
22 | AUAUAGCAAUAUUACGCAGC | -3.62 ± 0.43 | -1.92 ± 0.27
23 | AUAUAGCAAUAUUACGCCGU | -0.99 ± 0.24 | -0.413 ± 0.19
24 | AUAUAGCAAUAUUACGCGAC | -2.73 ± 0.22 | -2.32 ± 0.21
25 | AUAUAGCAAUAUUACGCGCG | -0.915 ± 0.12 | -0.503 ± 0.15

Row | Sequence | self-splicing fitness (ln) (30 °C) | self-splicing fitness (ln) (37 °C)
26 | AUAUAGCAAUAUUACGCUGC | – | -1.74 ± 0.34
27 | AUAUAGCAAUAUUACGGAAA | – | -0.209 ± 0.33
28 | AUAUAGCAAUAUUACGGAGC | – | -2.15 ± 0.46
29 | AUAUAGCAAUAUUACGGCAG | -1.74 ± 0.16 | -1.79 ± 0.19
30 | AUAUAGCAAUAUUACGGCGU | -0.109 ± 0.11 | -0.16 ± 0.12
31 | AUAUAGCAAUAUUACGGCUC | -0.0589 ± 0.13 | -0.144 ± 0.16
32 | AUAUAGCAAUAUUACGGGAA | -2.9 ± 0.2 | -2.23 ± 0.19
33 | AUAUAGCAAUAUUACGGGGA | -2.21 ± 0.32 | -1.72 ± 0.41
34 | AUAUAGCAAUAUUACGGGUG | -1.81 ± 0.17 | -1.3 ± 0.15
35 | AUAUAGCAAUAUUACGGUAC | -3.69 ± 0.39 | -2.59 ± 0.22
36 | AUAUAGCAAUAUUACGGUUG | -3.18 ± 0.2 | -2.24 ± 0.26
37 | AUAUAGCAAUAUUACGUAAA | -2.17 ± 0.21 | -1.56 ± 0.29
38 | AUAUAGCAAUAUUACGUAGA | -2.19 ± 0.094 | -1.87 ± 0.15
39 | AUAUAGCAAUAUUACGUAUG | -3.36 ± 0.25 | -1.72 ± 0.3
40 | AUAUAGCAAUAUUACGUGGU | -2.88 ± 0.19 | -1.54 ± 0.29
41 | AUCAAGCAAUAUUACGAAGU | -2.52 ± 0.11 | -1.22 ± 0.12
42 | AUCAAGCAAUAUUACGACAC | -1.45 ± 0.079 | -0.324 ± 0.11
43 | AUCAAGCAAUAUUACGACGG | -3.8 ± 0.14 | -2.67 ± 0.15
44 | AUCAAGCAAUAUUACGAGAA | -1.21 ± 0.49 | -2.28 ± 0.28
45 | AUCAAGCAAUAUUACGAGCA | -1.3 ± 0.075 | -0.375 ± 0.076
46 | AUCAAGCAAUAUUACGAGUA | -1.56 ± 0.11 | -0.436 ± 0.1
47 | AUCAAGCAAUAUUACGAUAU | -1.21 ± 0.065 | -0.753 ± 0.092
48 | AUCAAGCAAUAUUACGAUCA | -1.14 ± 0.1 | -0.582 ± 0.11
49 | AUCAAGCAAUAUUACGCCAA | -1.99 ± 0.16 | -0.947 ± 0.13
50 | AUCAAGCAAUAUUACGCCGC | -2.23 ± 0.34 | –

Row | Sequence | self-splicing fitness (ln) (30 °C) | self-splicing fitness (ln) (37 °C)
51 | AUCAAGCAAUAUUACGCCUG | -1.61 ± 0.12 | -0.797 ± 0.16
52 | AUCAAGCAAUAUUACGCGCA | -0.314 ± 0.073 | 0.448 ± 0.098
53 | AUCAAGCAAUAUUACGCUAG | -2.76 ± 0.16 | -1.03 ± 0.13
54 | AUCAAGCAAUAUUACGCUUU | -3.57 ± 0.15 | -2.31 ± 0.12
55 | AUCAAGCAAUAUUACGGUGG | -3.54 ± 0.19 | -2.63 ± 0.2
56 | AUCAAGCAAUAUUACGUAAG | -2.05 ± 0.097 | -1.45 ± 0.13
57 | AUCAAGCAAUAUUACGUACG | -2.54 ± 0.11 | -0.576 ± 0.11
58 | AUCAAGCAAUAUUACGUAGA | -1.36 ± 0.094 | -1.66 ± 0.17
59 | AUCAAGCAAUAUUACGUCAA | -3.14 ± 0.2 | -0.928 ± 0.15
60 | AUCAAGCAAUAUUACGUCCG | -2.1 ± 0.14 | -1.14 ± 0.16
61 | AUCAAGCAAUAUUACGUGAA | -1.73 ± 0.071 | -1.45 ± 0.1
62 | AUCAAGCAAUAUUACGUUGG | -2.7 ± 0.13 | -2.25 ± 0.16
63 | AUCAAGCAAUAUUACGUUGU | -3.46 ± 0.17 | -1.92 ± 0.12
64 | AUCCAGCAAUAUUACGACAA | -0.977 ± 0.095 | -0.337 ± 0.096
65 | AUCCAGCAAUAUUACGCGGG | -3.37 ± 0.13 | -2.42 ± 0.17
66 | AUCCAGCAAUAUUACGCGUA | -0.536 ± 0.089 | -0.499 ± 0.097
67 | AUCCAGCAAUAUUACGGACU | -0.507 ± 0.068 | 0.126 ± 0.082
68 | AUCCAGCAAUAUUACGGAUG | -2.21 ± 0.094 | -1.68 ± 0.12
69 | AUCCAGCAAUAUUACGGCUU | -0.0325 ± 0.076 | 0.438 ± 0.1
70 | AUCCAGCAAUAUUACGGGUA | -1.58 ± 0.1 | -1.21 ± 0.089
71 | AUCCAGCAAUAUUACGGUUA | -0.475 ± 0.05 | 0.0679 ± 0.054
72 | AUCCAGCAAUAUUACGGUUC | -4.5 ± 0.17 | -1.95 ± 0.17
73 | AUCCAGCAAUAUUACGUAAG | -1.59 ± 0.065 | -0.715 ± 0.087
74 | AUCCAGCAAUAUUACGUAUU | -1.84 ± 0.078 | -1.23 ± 0.093
75 | AUCCAGCAAUAUUACGUCCG | -2.45 ± 0.17 | -1.04 ± 0.15

Row | Sequence | self-splicing fitness (ln) (30 °C) | self-splicing fitness (ln) (37 °C)
76 | AUCCAGCAAUAUUACGUCGG | -2.71 ± 0.089 | -2.43 ± 0.13
77 | AUCCAGCAAUAUUACGUCUA | -0.908 ± 0.066 | -0.497 ± 0.07
78 | AUCCAGCAAUAUUACGUGGC | -3.98 ± 0.17 | -2.62 ± 0.16
79 | AUCCAGCAAUAUUACGUGUU | -2.74 ± 0.094 | -2.45 ± 0.12
80 | AUCGAGCAAUAUUACGAAUA | -3.09 ± 0.44 | -2.21 ± 0.35
81 | AUCGAGCAAUAUUACGACAG | -2.51 ± 0.12 | -3.22 ± 0.19
82 | AUCGAGCAAUAUUACGAUAG | -3.68 ± 0.22 | -3.23 ± 0.2
83 | AUCGAGCAAUAUUACGAUUC | -2.98 ± 0.34 | –
84 | AUCGAGCAAUAUUACGCACA | -2.46 ± 0.16 | -0.76 ± 0.11
85 | AUCGAGCAAUAUUACGCUAU | -3.38 ± 0.29 | -3.08 ± 0.24
86 | AUCGAGCAAUAUUACGGAUG | – | 0.184 ± 0.17
87 | AUCGAGCAAUAUUACGGCCG | -1.92 ± 0.22 | -0.981 ± 0.2
88 | AUCGAGCAAUAUUACGGCGC | -1.38 ± 0.091 | -0.856 ± 0.13
89 | AUCGAGCAAUAUUACGGCUG | -1.8 ± 0.24 | -0.221 ± 0.35
90 | AUCGAGCAAUAUUACGGGCC | -1.92 ± 0.27 | -2.19 ± 0.37
91 | AUCGAGCAAUAUUACGGGGG | -3.4 ± 0.25 | -2.67 ± 0.26
92 | AUCGAGCAAUAUUACGGUAA | -2.41 ± 0.29 | -3.15 ± 0.35
93 | AUCGAGCAAUAUUACGGUAG | – | -1.93 ± 0.27
94 | AUCGAGCAAUAUUACGGUCA | -2.98 ± 0.18 | -2.07 ± 0.18
95 | AUCGAGCAAUAUUACGGUUA | -3.3 ± 0.23 | -1.04 ± 0.13
96 | AUCGAGCAAUAUUACGGUUC | -2.93 ± 0.24 | –
97 | AUCGAGCAAUAUUACGUAAC | -3.15 ± 0.43 | –
98 | AUCGAGCAAUAUUACGUACA | -3.78 ± 0.33 | -1.72 ± 0.16
